{"source": "patent US20020103123A1", "key": {"[1]": {"biological_target": "T1, rat hypothalamic Y5 receptor (rat)", "T1 sequence": "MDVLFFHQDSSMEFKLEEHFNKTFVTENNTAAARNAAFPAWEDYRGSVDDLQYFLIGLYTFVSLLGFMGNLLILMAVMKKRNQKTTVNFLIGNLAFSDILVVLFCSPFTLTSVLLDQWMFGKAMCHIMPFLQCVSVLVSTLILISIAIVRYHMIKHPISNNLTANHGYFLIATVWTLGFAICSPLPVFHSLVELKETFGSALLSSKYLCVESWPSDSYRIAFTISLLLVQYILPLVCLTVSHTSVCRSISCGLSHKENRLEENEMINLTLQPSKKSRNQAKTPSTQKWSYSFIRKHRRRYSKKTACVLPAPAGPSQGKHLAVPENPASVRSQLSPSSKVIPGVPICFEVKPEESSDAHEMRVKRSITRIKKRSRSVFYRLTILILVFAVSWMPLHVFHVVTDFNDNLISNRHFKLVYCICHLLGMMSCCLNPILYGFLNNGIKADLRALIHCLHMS"}, "[2]": {"biological_target": "T2, rat Y2 receptor (rat), Q9ERC0", "T2 chain": "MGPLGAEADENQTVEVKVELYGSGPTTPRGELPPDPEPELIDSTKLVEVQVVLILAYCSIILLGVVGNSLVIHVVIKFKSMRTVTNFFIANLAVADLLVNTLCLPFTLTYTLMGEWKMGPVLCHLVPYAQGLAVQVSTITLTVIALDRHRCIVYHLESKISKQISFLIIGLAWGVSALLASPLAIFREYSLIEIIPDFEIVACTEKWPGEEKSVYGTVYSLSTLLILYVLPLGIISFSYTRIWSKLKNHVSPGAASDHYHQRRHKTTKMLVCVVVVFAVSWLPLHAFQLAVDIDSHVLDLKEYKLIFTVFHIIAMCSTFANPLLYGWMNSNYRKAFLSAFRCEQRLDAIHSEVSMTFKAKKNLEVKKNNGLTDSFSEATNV", "assay": "125I-PYY displacement, COS-7 membranes", "details": "remark: other sources report otherwise"}, "[3]": {"biological_target": "human hippocampal Y5 receptor (human)", "sequence (chain, as listed by the source)": "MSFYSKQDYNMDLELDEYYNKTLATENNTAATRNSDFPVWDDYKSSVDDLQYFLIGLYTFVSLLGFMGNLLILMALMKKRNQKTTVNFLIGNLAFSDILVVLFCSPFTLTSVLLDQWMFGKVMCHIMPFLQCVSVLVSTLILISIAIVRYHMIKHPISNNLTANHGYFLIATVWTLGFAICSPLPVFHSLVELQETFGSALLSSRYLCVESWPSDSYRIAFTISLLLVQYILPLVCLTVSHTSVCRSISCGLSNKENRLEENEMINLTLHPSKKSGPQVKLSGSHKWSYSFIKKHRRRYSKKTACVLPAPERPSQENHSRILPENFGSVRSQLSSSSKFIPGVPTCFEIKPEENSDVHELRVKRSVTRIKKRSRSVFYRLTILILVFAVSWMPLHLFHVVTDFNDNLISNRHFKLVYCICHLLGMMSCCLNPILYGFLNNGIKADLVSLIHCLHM"}, "[4]": {"biological_target": "T3, rat Y4 receptor (rat), Q63447", "T3 chain": "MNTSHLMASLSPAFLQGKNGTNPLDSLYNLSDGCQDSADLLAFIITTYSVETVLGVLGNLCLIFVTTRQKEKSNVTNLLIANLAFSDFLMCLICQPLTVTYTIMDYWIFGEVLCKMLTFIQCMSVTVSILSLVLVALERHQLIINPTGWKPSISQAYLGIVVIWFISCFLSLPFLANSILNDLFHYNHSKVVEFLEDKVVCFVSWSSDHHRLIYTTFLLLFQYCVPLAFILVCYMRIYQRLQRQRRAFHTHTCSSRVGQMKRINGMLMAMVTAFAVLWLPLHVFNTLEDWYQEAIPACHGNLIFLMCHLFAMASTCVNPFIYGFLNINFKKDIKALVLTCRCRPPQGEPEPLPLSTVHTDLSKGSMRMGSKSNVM", "assay": "125I-PYY displacement, COS-7 membranes", "details": "remark: other sources report otherwise"}, "[5]": {"biological_target": "T1, rat hypothalamic Y5 receptor (rat)", "remark": "listed apart in the source"}}, "note": "Ends that are not written are not given here."}
{"binder": "APLEPMYPGDYATHEQRAQYETQLRRYINTLTRPRY", "note": "[rat PP]", "values": [{"measurement": "inhibition of forskolin-stimulated cAMP accumulation, EC50", "setting": "[1]", "value": 130, "unit": "nM"}]}
{"binder": "HYINLITRQRY (ends and bridges not checked)", "note": "[porcine NPY26-36, P01304]", "values": [{"measurement": "Ki", "setting": "[2]", "value": "> 830", "unit": "nM"}]}
{"binder": "APLEPEYPGDNATPEQMAQYAAELRRYINMLTRPRY", "note": "[bovine PP]", "values": [{"measurement": "inhibition of forskolin-stimulated cAMP accumulation, EC50", "setting": "[3]", "value": 4, "unit": "nM"}, {"measurement": "inhibition of forskolin-stimulated cAMP accumulation, EC50", "setting": "[1]", "value": 5.7, "unit": "nM"}]}
{"binder": "PAEDLARYYSALRHYINLITRQRY (ends and bridges not checked)", "note": "[porcine NPY13-36, P01304]", "values": [{"measurement": "Ki", "setting": "[4]", "value": 140, "unit": "nM"}]}
{"binder": "FLRF-NH2", "note": "[FLRF-amide]", "values": [{"measurement": "maximal suppression of cAMP relative to that produced by human NPY", "setting": "[5]", "value": 42, "unit": "%"}, {"measurement": "inhibition of forskolin-stimulated cAMP accumulation, EC50", "setting": "[1]", "value": 13000, "unit": "nM"}]}
